Assay results as given in US20210269548A1 (Kyowa Kirin, published 2021).
Where a chain is given by its changes, count along the chain named.

Legend:
mouse CSPG5-FLAG_Fc = mouse CSPG5-FLAG_Fc (mouse); assay: phage ELISA, immobilised antigen, anti-M13-HRP
Procedure: (§1) In the ELISA, human CSPG5-FLAG_Fc and mouse CSPG5-FLAG_Fc were immobilized on MAXISORP (manufactured by NUNC, Inc.), followed by blocking using SuperBlock Blocking Buffer (manufactured by Thermo Fisher Scientific, Inc.). As a negative control, a plate on which Fc was immobilized was also prepared.
(§2) To each well, each phage clone was added and allowed to react at room temperature for 30 minutes, and thereafter, each well was washed with PBS-T. Subsequently, a solution obtained by diluting an anti-M13 antibody (manufactured by GE Healthcare, Inc.) labeled with horseradish peroxidase with PBS-T comprising 10% Block Ace (manufactured by Dainippon Pharmaceutical Co., Ltd.) was added to each well and incubated at room temperature for 30 minutes. After the microplate was washed 3 times with PBS-T, a 3,3′,5,5′-tetramethylbenzidine (TMB) chromogenic substrate solution (manufactured by DAKO, Inc.) was added thereto, followed by incubation at room temperature. The coloring reaction was stopped by adding a 0.5 mol/L sulfuric acid to each well, and an absorbance at a wavelength of 450 nm (reference wavelength: 570 nm) was measured using a microplate reader. […]

human CSPG5-FLAG_Fc = human CSPG5-FLAG_Fc (human); assay: phage ELISA, immobilised antigen, anti-M13-HRP
Procedure: as §1, §2

B1: pCANTAB_CSPG5168 phage clone (scFv, V domains shown)
VH: EVQLVETGGALVQPGGSLRLSCAGSGFIFSKYEMTWVRQAPGKGLEWVSTIGSLGLKTFYTDSVKGRFTTSRDNSRDTLFLQMDNLRVEDTAIYFCVKGGIRRADYWGKGTLVTVSS
VL: EIVMTQSPATLSLSPGERATLSCRASQSVSSYLAWYQQKPGQAPRLLIYDASNRATGIPARFSGSGSGTDFTLTISSLEPEDFAVYYCQQRSNWPLTFGGGTKVEIK
notes: also called CSPG5168 scFv on phage
binding result (mouse CSPG5-FLAG_Fc): binds | binding result (human CSPG5-FLAG_Fc): binds

B2: pCANTAB_CSPG5120 phage clone (scFv, V domains shown)
VH: EVQLVQSGGGLVQPGGSLRLSCAASGFTFSNYWMTWVRQAPGEGPEWVANINQDGSQKYYVDSVKGRFTISRDNAKNSLNLQMNNLRAEDTALYYCAKSNAMDVWGQGTLVTVSS
VL: DIVMTQSPLSLPVTPGEPASISCRSSESLLHSNGYNYLNWYLQKPGQSPQLLIYLGSHRASGVPDRLSGSGSDTDFTLKISRVEAEDVGIYYCMQGRQTPITFGGGTKLEIK
notes: also called CSPG5120 scFv on phage
binding result (mouse CSPG5-FLAG_Fc): binds | binding result (human CSPG5-FLAG_Fc): binds

B3: pCANTAB_CSPG5219 phage clone (scFv, V domains shown)
VH: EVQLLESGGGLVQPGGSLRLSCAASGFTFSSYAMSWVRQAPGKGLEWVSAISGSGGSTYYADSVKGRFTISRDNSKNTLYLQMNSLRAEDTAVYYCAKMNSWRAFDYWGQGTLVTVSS
VL: EIVLTQSPGTLSLSPGERATLSCRASQSVSSSYLAWYQQKPGQAPRLLIYGASSRATGIPDRFSGSGSGTDFTLTISRLEPEDFAVYYCQQLRRKGSTFGQGSKVEIK
notes: also called CSPG5219 scFv on phage
binding result (mouse CSPG5-FLAG_Fc): binds | binding result (human CSPG5-FLAG_Fc): binds

B4: pCANTAB_CSPG5206 phage clone (scFv, V domains shown)
VH: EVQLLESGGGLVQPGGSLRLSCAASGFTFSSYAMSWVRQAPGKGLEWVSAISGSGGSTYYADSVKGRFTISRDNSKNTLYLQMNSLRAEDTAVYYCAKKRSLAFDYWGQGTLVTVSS
VL: QSALTQPASVSGSPGQSITISCTGTSTDVNGYNYVSWYQQYAGKAPKLIIFDVSKRPSGVSNRFSGSKSGDTASLTISGLQAEDEADYHCSSYNRKRPPVLFGGGTKLTVL
notes: also called CSPG5206 scFv on phage
binding result (mouse CSPG5-FLAG_Fc): binds | binding result (human CSPG5-FLAG_Fc): binds

B5: pCANTAB_CSPG5201 phage clone (scFv, V domains shown)
VH: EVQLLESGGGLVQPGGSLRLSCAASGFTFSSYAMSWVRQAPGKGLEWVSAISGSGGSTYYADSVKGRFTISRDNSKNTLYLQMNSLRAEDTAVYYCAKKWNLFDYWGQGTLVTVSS
VL: B4 VL with N94R, K96L, P98L
notes: also called CSPG5201 scFv on phage
binding result (mouse CSPG5-FLAG_Fc): binds | binding result (human CSPG5-FLAG_Fc): binds

B6: pCANTAB_CSPG5207 phage clone (scFv, V domains shown)
VH: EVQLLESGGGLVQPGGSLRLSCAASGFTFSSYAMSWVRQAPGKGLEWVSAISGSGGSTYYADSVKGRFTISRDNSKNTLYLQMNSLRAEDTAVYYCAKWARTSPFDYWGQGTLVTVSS
VL: B4 VL with N94T, R95P, K96S, P98A, P99R
notes: also called CSPG5207 scFv on phage
binding result (mouse CSPG5-FLAG_Fc): binds | binding result (human CSPG5-FLAG_Fc): binds

B7: pCANTAB_CSPG5214 phage clone (scFv, V domains shown)
VH: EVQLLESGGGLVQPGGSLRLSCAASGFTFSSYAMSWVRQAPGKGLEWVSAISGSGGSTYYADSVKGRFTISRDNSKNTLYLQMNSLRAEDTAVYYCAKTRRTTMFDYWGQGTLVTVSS
VL: B4 VL with R95P, K96H, R97H, P98S, P99G
notes: also called CSPG5214 scFv on phage
binding result (mouse CSPG5-FLAG_Fc): binds | binding result (human CSPG5-FLAG_Fc): binds

B8: pCANTAB_CSPG5230 phage clone (scFv, V domains shown)
VH: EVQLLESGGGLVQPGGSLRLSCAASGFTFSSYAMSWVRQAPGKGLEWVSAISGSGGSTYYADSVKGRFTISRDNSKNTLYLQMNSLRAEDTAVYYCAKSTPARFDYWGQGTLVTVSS
VL: B4 VL with N94H, R95T, K96R, R97P, P98A, P99T
notes: also called CSPG5230 scFv on phage
binding result (mouse CSPG5-FLAG_Fc): binds | binding result (human CSPG5-FLAG_Fc): binds

B9: pCANTAB_CSPG5234 phage clone (scFv, V domains shown)
VH: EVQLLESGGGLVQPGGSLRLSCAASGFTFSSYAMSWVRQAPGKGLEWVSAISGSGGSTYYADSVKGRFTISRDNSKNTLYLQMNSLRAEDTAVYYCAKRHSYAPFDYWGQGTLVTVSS
VL: B4 VL with N94R, R95P, R97A, P98R, P99S
notes: also called CSPG5234 scFv on phage
binding result (mouse CSPG5-FLAG_Fc): binds | binding result (human CSPG5-FLAG_Fc): binds

B10: pCANTAB_CSPG5115 phage clone (scFv, V domains shown)
VH: EVQLVQSGAEVKKPGASLKVSCKASGYSFTDYIIHWVRQAPGQSLEWMGWINGGSGVPKYSDKFQGRVTITRDTSANTAYMEIRSLGSEDTAVYYCARGGVCSGDKCYYYGMDVWGQGTTVTVSS
VL: QSVLTQPPSVSVSPGQTASITCSGDKLGDKYSWWYQQKPGQSPLLVIHQDNKRPSGIPERFSGSNSGNTATLTIVGTQAMDEADYYCQAWDRGVVFGGGTKLTVL
notes: also called CSPG5115 scFv on phage
binding result (mouse CSPG5-FLAG_Fc): binds | binding result (human CSPG5-FLAG_Fc): binds
